{"source": "the DeepSol protein solubility set"}
{"test": "soluble on expression in E. coli; label from the status in PepcDB or PDB records"}
{"sequence": "MGSDKIHHHHHHVPMGKLIASLVDIVKKNKFVDDTQKALFDNFENTKRVNVYIDDLDRGWEGRKEDIRRISALLNAVRDISNEMDNVHFMISLRSDVYYLVRTSDESTDKISGSVIWYTWDRHQILALLAKRVETFFGRDISENSLMGMHQSKIAQYLDPIMTQHFEGKGKWENAPIYRILMSLIRNRPRDLVMICTLAARNARKKGRSKILTEDLQSIFEDYSLERIQDIENEFKSELPEIRRLLFALKPSAKKSSKFSDLYVYTTDQVEAKIQSASANAPFYFSNNNKQATSEELHYFLYKINFLTARRKNKDDVLVRKTFEENKYLTGRFVDFGFGWEVHPAYRWALEPDDSESIYARLDLLDFE", "soluble on expression in E. coli": "not soluble"}
{"sequence": "MSFRTIEWRDDKVVMIDQTRLPGEEVYCEYADYKSVAEAIRGMVIRGAPAIGVAAAMGVALGAREIIADTYESFFRQMENVCDVMARTRPTAVNLFWAIERMKRVADENRDKPLDQLREILKTEAIRIEQEDLELCKAIGRHGAALIPEGATVLTHCNAGGLATAGYGTALGVIRAAHDAGKKIQVFADETRPWLQGARLTAWELMKDGIPVTLISDNMAGFFMKRGEIACCVVGADRIAANGDTANKIGTYSVAVLAKENNIPFYVAAPTTTLDLSLENGDQIPIEERHSREVTHLHGFPVAPEGIRVRNPAFDVTPARYISAIITEQGVVSGDYVTGLRGLVAPLEHHHHHH", "soluble on expression in E. coli": "not soluble"}
{"sequence": "SYFSIFSPSFTSLRHDGKPVQCSGLDMQFDPSEPGFYDDPDLSYSIEKPITKWDEKRNQWFESHPSFKPGSENRIVMVTGSQSSPCKNPIGDHLLLRCFKNKVDYARIHGHDIFYSNSLLHPKMNSYWAKLPVVKAAMLAHPEAEWIWWVDSDAIFTDMEFKPPLHRYRQHNLVVHGWPNIIYEKQSWTALNAGVFLIRNCQWSMDLIDTWKSMGPVSPDYKKWGPIQRSIFKDKLFPESDDQTALIYLLYKHKELYYPKIYLEAEYYLQGYWIGVFGDFANVTERYLEMEREDDTLRRRHAEKVSERYGAFREERFLKGEFGGRGSRRRAFITHFTGCQPCSGDHNPSYDGDTCWNEMTRALNFADNQVMRVYGYVHSDLSKTSPLQPLPFDYPNEAW", "soluble on expression in E. coli": "soluble"}
{"sequence": "MGKFLVQFWGVRGLIPTPSSNTSRYGGNTACVEMQVAGKRLIFDGGTGLRILGKAWQHLQQPLEAHLFFTNSQSNRIQGFPFFAPAFIAGNCFHIYGGAASNGASIKQCLCDQMLQPHFPYPLQVMQSELQFYPLTPDSEVKLDDVTIRTALINQTQRSIGYRVTWQEYSVAYVTDLNMSAEQGEREQVLQIIQDVDLLIANATYTPPTSHDHESVDLLWQAAVEMAQKAGVRKLIISHHHPDDHDDFLDQVEKEVQSTFSDALLACEGLALPVFLEHHHHHH", "soluble on expression in E. coli": "not soluble"}
{"sequence": "MGSDKIHHHHHHMSDIESLGEAAGLFEEPEDFLPPPPKPHFAEYQRSHITKESKSDVKDIKLRLVGTSPLWGHLLWNAGIYTANHLDSHPELIKGKTVLELGAAAALPSVICALNGAQMVVSTDYPDPDLMQNIDYNIKSNVPEDFNNVSTEGYIWGNDYSPLLAHIEKIGNNNGKFDLIILSDLVFNHTEHHKLLQTTKDLLAEKGQALVVFSPHRPKLLEKDLEFFELAKNEFHLVPQLIEMVNWKPMFDEDEETIEVRSRVYAYYLTHEK", "soluble on expression in E. coli": "not soluble"}
{"sequence": "GPGSMDIDSPYKILGIPQSASVADIRAAFRRLALTTHPDKQGSNTSGGEAQMMLYSSHPFYVIKEASDILLDPVRRAEYDEGQQRMYARSIGVVSDVHDISDFRLVEERKALCSEDRVCGDVTIQVYEMECRCGGAFEIFLVKGEEGNMDKLCGCDSCSLIVSVRRQTQQ", "soluble on expression in E. coli": "soluble"}
{"sequence": "MSILAEPKRKQKISIDPQNLTWKNDDQKLSKKLMEKMGWSEGDGLGRNRQGNADSVKLKANTSGRGLGADKMADYDSTWISHHDDFADLLAALNKNKEQEPEQTEEEKNAAAEKISIELKSKSIRRRIHYQKFTRAKDTSNYSDSHKKGILGYGRLKSDNAEEKIEEKTENSSVKSDSSDSQADSQEKKEGNNTVSTLSVGDYFAAKMAALKAKREAAAANQTEVKMEIKTEVEEEESDEEKARRKAEKKERKRLRREQRDKEETLETVETILEVKQEVKEEIIDEEFDEAERKRLKKEKKRLKRLREQQQPENEGAEGGEADEEEIPRKRKKHTEDEH", "soluble on expression in E. coli": "not soluble"}
{"sequence": "MLGSIACSMEFEDFDLYSYFYGLVKQIPEGYVTTYGDLAQALGDPIAARAVGYMLSINEDPDTIPCYRVVLHDGTVGNYTHPLGPMEKVRRLRADGIPVVDGMIENFDRYRFRDFKTDQPLRKMQQYQEYIARKYSESGAGEFRTVAAFDVSYEERRAFASMVIQDGSTIEAYVISDGINFPYIPGYLAFREFRFIKKLYRKADLLLIDGNGILHPRFAGLATHAGVLLDRASIGVAKHLTRSTRHQDIIYMQDRPVGVMIRKNMIVSPGNFIDVNGSADTVRKMWNDRYPWPLKLAHQLSTRHAETGGRVSEYSIESAHELHLEHHHHHH", "soluble on expression in E. coli": "soluble"}
{"sequence": "MYNFFRTVPRANRNEITFYPDYEEEGQKKKKTRSMFSWLGGDSSKKKNKEVLETVSEGLRKIYKQKLLPLEEFHKFHDFHSPALDDPDFDAKPMILLVGQYSTGKTTFIRYLLESDFPGIRIGPEPTTDRFIAVMHGDEEGSIPGNALVVDAKKQFRALSGFGNAFLNRFQCSTLPNQVLESVTIVDTPGILSGEKQRIDRGYDFTGVLEWFAERVDRIILLFDAHKLDISDEFKRCIEALAGNEDKIRIVLNKSDMVDHQQLMRVYGALMWSLGKVFKTPEVSRVYLGSFWDHPLHYDLNRRLFQDEQHDLFQDLQALPRNAALRKLNDLIKRARLAKVHAYIIAELRKQMPSMIGKDKKKKDLIQNLDKIYEQLQREHNISPGDFPDVNKMREKLQTQDFSKFNPLKPKLLEVVDGMLATDIARLMAQIPKEEAAAPAGSNGSADPTVRGGAFSQTTEAETPFGFGRGEGFDKGADEAEWVVSRERTTADSTFESLGPVNGYLSGRAAKEHMVKSKLPNSVLGKVWKLADIDKDGQLDADEFALANYLINLKLEGHEIPSELPKHLIPPSKRGEQDPVYPSLNDNDE", "soluble on expression in E. coli": "soluble"}
{"sequence": "EDDEDYGDLGGCPFLVAENKTGYPTIVACKQDCNGTTETAPNGTRCFSIGDEGLRRMTANLPYDCPLGQCSNGDCIPKETYEVCYRRNWRDKKNHHHHHH", "soluble on expression in E. coli": "soluble"}
{"sequence": "MGSDKIHHHHHHMNEGKILSGLLAPHPPHLVYGENPPQNEPRSQGGWEPLRWAYDQVRENIEHLKPDVLIVHSPHWITQVGHHFLGVPRLTGRSVDPIFPNLFRYDFGMNVDVELAEACCEEATKLGLVSKMMRNPSFRVDYGTITTLHMVRPQWDIPVVGISANNTPYYLNTKEGLGEMDLLGRATREAIRKTGRRAVLLASNTLSHWHFHEEPALPEDMSKEHPERYDGYLWDVRMIELMRKGHMKEVFELLPQFIEEAFAEIKSGAFTWMHAAMGYPELAGKLHGYGTVIGTGNAVIEWNLEDVGLSRLESVA", "soluble on expression in E. coli": "not soluble"}
{"sequence": "MGSDKIHHHHHHMQWDVIVVGGGPSGLTMAAELAGSGVRTLVLERRTDGVQSRAGTIMPRVLELLDARGIAHRFIEKTRAISNYPFRPSHIWAGFHPINWKYLESRFGFTLGLPQNHTEEILGAWAAECGAEIRTGMEVLDVRQSDDAVEIDVLDVAGTVATLHARYAVGADGGRSVVRNRLGLPFEGHSGTFRGIVIDAELHAPWPGGRVNVDNEMGWVRGYVFGDGVTRFNIVHRDRRHAPKDEPVTLEEALQCIRDVHGTDYGIRAFRWASRFDDQMRMVSSLRKGRVFLVGESARIHYPASGVGMNFCLQDAFNLGWKLANVINGVADPSTLDTYDAERLPVMHALLESVKAQCALQFNFEPDAVALKRRMQEHIIPLPDVQRKLVLELSGLEAPYPRAPSSHSLTGQRCPDLDLLLPDGSAVAVTQTLRERRFVLLDLEGFSRQFAALNLSGWPVTVLAARAARIPASMEGVKALLLRPDGYVAWAATDVAQAAEAEAQLAKWLKR", "soluble on expression in E. coli": "not soluble"}
{"sequence": "MPTDIFSFKQFDIDQTGCAMRVGTDGVLLGAWAGEDAAGSIPQHCLDIGTGTGLIALMLAQRFPQARVQGIEIDPIAAECARANAAASPFSDRIVIASGDILDSSLESLIGNQRFDLIVSNPPFFKSSMHAPDRQRTMARHEETLPLEKLICRASELLSPQGRLALITPRDRLKDLRLYAATYRLVSSRLTEVRTLPHKEPKRLLSEWRPADTAIDRSPFTDTLIIHPATGYYSPEYVRLTEPFYTTSFRILAVG", "soluble on expression in E. coli": "soluble"}
{"sequence": "MEVPVHPLSQDPTAAWREISKTQRVIKVTMKPPTTTVAPNKARVVCMSDTHSLTPYIKFDIPDGDIFIHAGDFTKCGQLEEVEEFNTWIGALPHRHKIVIAGNHELSFDRTFTHPFQKSKSHASSSKHTGMSILDDLPTLGNAKENLESAVQTQNVRDVLTNCRYLEDELLEIWGIQIYGSPWQPEFCRWAFNVPRGTACLDKWNQIPEGIDILVTHTPPVGHGDLCCSGVRAGCVELLSTVQQRVRPKYHVFGHVHEGYGITSDGRIIFVNASTCDINYLPNNAPIVFDVTLPPGFRKDLEHHHHHH", "soluble on expression in E. coli": "soluble"}
{"sequence": "MGSDKIHHHHHHMTKPLINLVHANGFPAGSYKTFLQEFDNDFRTIAHNQFGHNVLYPIHNNWQHLVTELVEFIKKQDEKVICVGHSFGGVISFIAACQHPELFRGLVMLDPPVVTGAFSHLLSFIKRTPYIDKLSPAGKAKTRQNQWPENTNLVDYFSQKTLFKNFDSRCLQDYASSSVVLRNKRLELSFSPAVEADIFRHLPTNLVKYKNKLTVPAKLIYGEKTQIFPIKHFVRFAKLNDIELMTLPNGGHMFPLEQPENTANMVKQIIKDW", "soluble on expression in E. coli": "not soluble"}
{"sequence": "MGSDKIHHHHHHDMNKLDSDYSVYTDYDNSVHFNEFSTYYLPDSILVPDNSLKANYWKDENAQNIISAVAHEMEQKGYVRTEDKEKANVGIQLSYAQQRIQMTTGGWYGGWWDAGFWGPYWGGGWYYPYPVTYSYDTGTLIMEMVDLRQPADKSNQNKLPVIWHAYASGLLYGNSHFNMQLTLNAVNQAFAQSPYLSNKQ", "soluble on expression in E. coli": "not soluble"}
{"sequence": "MSLRVENLRSSTYRNGPTGLPNRARFSEDLDAVLLQRTADSAATAIAVDLCGSDYFRDMVKALGWDYADGYVALAYKRLISKLPAGTALYRLDTTTFAFMVTTADPLRLSALCSKISKGFVAPLEHQGIPHTAVASIGAVLLETSYGAADTLRSLTTSVDVAREHCLTWSLYEREGHHHHHH", "soluble on expression in E. coli": "not soluble"}
{"sequence": "MTNPLLTPFELPPFSKILPEHVVPAVTKALNDCRENVERVVAQGAPYTWENLCQPLAEVDDVLGRIFSPVSHLNSVKNSPELREAYEQTLPLLSEYSTWVGQHEGLYKAYRDLRDGDHYATLNTAQKKAVDNALRDFELSGIGLPKEKQQRYGEIATRLSELGNQYSNNVLDATMGWTKLVTDEAELAGMPESALAAAKAQAEAKELEGYLLTLDIPSYLPVMTYCDNQALREEMYRAYSTRASDQGPNAGKWDNSKVMEEILALRHELAQLLGFENYAFKSLATKMAENPQQVLDFLTDLAKRARPQGEKELAQLRAFAKAEFGVDELQPWDIAYYSEKQKQHLYSISDEQLRPYFPENKAVNGLFEVVKRIYGITAKERKDVDVWHPDVRFFELYDENNELRGSFYLDLYARENKRGGAWMDDCVGQMRKADGSLQKPVAYLTCNFNRPVNGKPALFTHDEVITLFHEFGHGLHHMLTRIETAGVSGISGVPWDAVELPSQFMENWCWEPEALAFISGHYETGEPLPKELLDKMLAAKNYQAALFILRQLEFGLFDFRLHAEFRPDQGAKILETLAEIKKLVAVVPSPSWGRFPHAFSHIFAGGYAAGYYSYLWADVLAADAFSRFEEEGIFNRETGQSFLDNILSRGGSEEPMDLFKRFRGREPQLDAMLEHYGIKG", "soluble on expression in E. coli": "soluble"}
